Data: patent CN103211774A, “一种注射用甲磺酸加贝酯组合物及其制备方法” (CHENGDU EASTON PHARMACEUTICAL Co Ltd, priority 2013, dated 2013)

System: guinea pig (豚鼠)
Assay: Allergy (sensitisation) test (过敏性试验)
Format: in vivo
Conditions: 0.5 ml x 3 every other day; challenge i.v. 1 ml on day 14 and day 21; observed 30 minutes

B1: 阳性对照组: 5% ovalbumin positive control group (protein, UniProt P01012 2-386, looked up)
Ovalbumin: GSIGAASMEFCFDVFKELKVHHANENIFYCPIAIMSALAMVYLGAKDSTRTQINKVVRFDKLPGFGDSIEAQCGTSVNVHSSLRDILNQITKPNDVYSFSLASRLYAEERYPILPEYLQCVKELYRGGLEPINFQTAADQARELINSWVESQTNGIIRNVLQPSSVDSQTAMVLVNAIVFKGLWEKAFKDEDTQAMPFRVTEQESKPVQMMYQIGLFRVASMASEKMKILELPFASGTMSMLVLLPDEVSGLEQLESIINFEKLTEWTSSNVMEERKIKVYLPRMKMEEKYNLTSVLMAMGITDVFSSSANLSGISSAESLKISQAVHAAHAEINEAGREVVGSAEAGVDAASVSEEFRADHPFLFCIKHIATNAVLFFGRCVSP
With B1 the allergic reaction symptoms was “竖毛、发抖、干呕、喷嚏、咳嗽、紫癜、呼吸困难、抽搐、休克、死亡”.
